Data on 17 molecules can be found in PMC10786891, “Massively parallel profiling of RNA-targeting CRISPR-Cas13d”.

T1: EsCas13d, nuclease-dead (Eubacterium siraeum, UniProt B0MS50, R295A;H300A;R849A;H854A)
T1 sequence: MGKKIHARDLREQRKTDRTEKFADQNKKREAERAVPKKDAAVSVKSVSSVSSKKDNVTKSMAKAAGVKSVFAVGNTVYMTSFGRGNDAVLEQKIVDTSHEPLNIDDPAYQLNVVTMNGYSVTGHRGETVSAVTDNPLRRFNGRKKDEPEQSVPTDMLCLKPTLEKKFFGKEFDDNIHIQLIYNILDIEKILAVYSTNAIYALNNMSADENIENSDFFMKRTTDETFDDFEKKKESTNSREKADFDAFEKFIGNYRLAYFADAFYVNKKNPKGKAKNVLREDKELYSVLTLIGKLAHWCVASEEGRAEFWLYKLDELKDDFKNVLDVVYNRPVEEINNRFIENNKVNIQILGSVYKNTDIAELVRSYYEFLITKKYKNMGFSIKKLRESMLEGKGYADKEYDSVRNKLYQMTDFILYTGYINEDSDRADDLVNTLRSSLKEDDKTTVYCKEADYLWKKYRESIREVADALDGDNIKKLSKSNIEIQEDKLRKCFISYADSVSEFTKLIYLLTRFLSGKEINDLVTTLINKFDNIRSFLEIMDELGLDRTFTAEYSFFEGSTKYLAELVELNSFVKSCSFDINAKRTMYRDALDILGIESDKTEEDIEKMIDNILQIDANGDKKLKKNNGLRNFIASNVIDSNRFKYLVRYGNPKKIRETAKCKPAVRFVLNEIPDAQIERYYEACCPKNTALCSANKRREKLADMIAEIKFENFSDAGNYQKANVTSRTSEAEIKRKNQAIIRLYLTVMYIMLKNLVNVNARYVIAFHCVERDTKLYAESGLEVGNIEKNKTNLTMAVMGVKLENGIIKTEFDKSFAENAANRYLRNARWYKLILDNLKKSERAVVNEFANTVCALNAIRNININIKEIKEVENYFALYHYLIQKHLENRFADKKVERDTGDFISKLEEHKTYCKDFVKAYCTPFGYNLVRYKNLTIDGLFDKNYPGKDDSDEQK

B1: target 1 MT 5'PFS GGC 3'PFS UCC (mixed)
RNA 1: CACCCGUGCAAAAAUGCAGGGGUCUAAAACUGAGCGGAUAACCUCUCUAUGG
RNA 2: GGGAAUGGAUCCACAUCUACGAAUUCGGCCCAUAGAGAGGUUAUCCGCUCAUCCAGAUCGGAAGAGCACACGU
B2: target 1 MT 5'PFS UGA 3'PFS CCU (mixed)
RNA 1: B1 RNA 1
RNA 2: B1 RNA 2 with G27U, C29A, U52C, C54U
B3: target 1 MT 5'PFS GUU 3'PFS AUG (mixed)
RNA 1: B1 RNA 1
RNA 2: B1 RNA 2 with G28U, C29U, U52A, C53U, C54G
B4: target 1 MT 5'PFS GUU 3'PFS AUC (mixed)
RNA 1: B1 RNA 1
RNA 2: B1 RNA 2 with G28U, C29U, U52A, C53U
B5: target 1 MT 5'PFS GGC 3'PFS UCG (mixed)
RNA 1: B1 RNA 1
RNA 2: B1 RNA 2 with C54G
B6: target 1 MT 5'PFS ACG 3'PFS UUG (mixed)
RNA 1: B1 RNA 1
RNA 2: B1 RNA 2 with G27A, G28C, C29G, C53U, C54G
B7: target 1 MT 5'PFS GUU 3'PFS UUA (mixed)
RNA 1: B1 RNA 1
RNA 2: B1 RNA 2 with G28U, C29U, C53U, C54A
B8: target 1 MT 5'PFS UAG 3'PFS UAU (mixed)
RNA 1: B1 RNA 1
RNA 2: B1 RNA 2 with G27U, G28A, C29G, C53A, C54U
B9: target 1 MT 5'PFS GUU 3'PFS UUC (mixed)
RNA 1: B1 RNA 1
RNA 2: B1 RNA 2 with G28U, C29U, C53U
B10: target 1 MT 5'PFS UAC 3'PFS ACU (mixed)
RNA 1: B1 RNA 1
RNA 2: B1 RNA 2 with G27U, G28A, U52A, C54U
B11: target 1 MT 5'PFS GGC 3'PFS UCU (mixed)
RNA 1: B1 RNA 1
RNA 2: B1 RNA 2 with C54U
B12: target 1 insU 3' of 22,insG 3' of 16 (mixed)
RNA 1: B1 RNA 1
RNA 2: GGGAAUGGAUCCACAUCUACGAAUUCGUACUCAUAGAGGAGGUUAUCCGCUCACCGAGAUCGGAAGAGCACACGU
B13: target 1 MT 5'PFS GUU 3'PFS UUG (mixed)
RNA 1: B1 RNA 1
RNA 2: B1 RNA 2 with G28U, C29U, C53U, C54G
B14: target 1 MT 5'PFS ACG 3'PFS UUC (mixed)
RNA 1: B1 RNA 1
RNA 2: B1 RNA 2 with G27A, G28C, C29G, C53U
B15: target 1 MT 5'PFS UAA 3'PFS CUU (mixed)
RNA 1: B1 RNA 1
RNA 2: B1 RNA 2 with G27U, G28A, C29A, U52C, C53U, C54U
B16: target 1 MT 5'PFS GUU 3'PFS AUA (mixed)
RNA 1: B1 RNA 1
RNA 2: B1 RNA 2 with G28U, C29U, U52A, C53U, C54A
B17: target 1 MT 5'PFS UGA 3'PFS CCG (mixed)
RNA 1: B1 RNA 1
RNA 2: B1 RNA 2 with G27U, C29A, U52C, C54G

Where a chain is given by its changes, count along the chain named.

The target of this data set is T1, EsCas13d, nuclease-dead. The data set can be described thus: crRNA (strand 1, pre-loaded); Mg2+; 40 mM Tris-HCl pH 7.5, 150 mM NaCl, 6 mM MgCl2, 1 mM DTT, 0.1% Tween-20, 0.2 mg/ml BSA; 25 C; 10 min per concentration, then washed. As to conditions: tags: His6-TwinStrep-SUMO cleaved; N-terminal SNAP kept (SNAP-Surface 488); label: 3' end held by stalled T7 RNA polymerase.
Usually Kd stands for the equilibrium constant for the complex coming apart. Regarding B1, the Kd was determined as 17.8 ± 2.5 nM.
Under B2 stands 36 ± 15 nM.
Under B3 stands 56 ± 9 nM.
With B4, binding was characterised by a dissociation constant (Kd) of 19.3 ± 3.55 nM.
Molecule B5 returned a dissociation constant Kd of 11.1 ± 1.15 nM.
The same measure for B6: 7.45 ± 1 nM.
Under B7 stands 13.1 ± 2.5 nM.
Under B8 stands 45 ± 9 nM.
In turn, B9 returned a Kd of 10.6 ± 1.45 nM.
The molecule B10 had a Kd of 11.2 ± 3.5 nM.
Under B11 stands 10 ± 1.2 nM.
In turn, B12 gave a Kd of 48 ± 16 nM.
Under B13 stands 11.1 ± 1.05 nM; under B14, 19.5 ± 8 nM.
Consider B15, for which the Kd is 48 ± 19 nM.
B16 came in with a Kd of 22 ± 5.5 nM.
The same measure for B17: roughly 42.5 nM.
